Assay [1] addresses T1, purified human carcinoembryonic antigen (hCEA) protein (human, UniProt P06731 35-685, limits assumed).
T1 construct: Bought protein coated on ELISA plates or used in solution to pre-incubate the virus; also called human CEA protein; recombinant hCEA protein (ab742)
T1 sequence (looked up): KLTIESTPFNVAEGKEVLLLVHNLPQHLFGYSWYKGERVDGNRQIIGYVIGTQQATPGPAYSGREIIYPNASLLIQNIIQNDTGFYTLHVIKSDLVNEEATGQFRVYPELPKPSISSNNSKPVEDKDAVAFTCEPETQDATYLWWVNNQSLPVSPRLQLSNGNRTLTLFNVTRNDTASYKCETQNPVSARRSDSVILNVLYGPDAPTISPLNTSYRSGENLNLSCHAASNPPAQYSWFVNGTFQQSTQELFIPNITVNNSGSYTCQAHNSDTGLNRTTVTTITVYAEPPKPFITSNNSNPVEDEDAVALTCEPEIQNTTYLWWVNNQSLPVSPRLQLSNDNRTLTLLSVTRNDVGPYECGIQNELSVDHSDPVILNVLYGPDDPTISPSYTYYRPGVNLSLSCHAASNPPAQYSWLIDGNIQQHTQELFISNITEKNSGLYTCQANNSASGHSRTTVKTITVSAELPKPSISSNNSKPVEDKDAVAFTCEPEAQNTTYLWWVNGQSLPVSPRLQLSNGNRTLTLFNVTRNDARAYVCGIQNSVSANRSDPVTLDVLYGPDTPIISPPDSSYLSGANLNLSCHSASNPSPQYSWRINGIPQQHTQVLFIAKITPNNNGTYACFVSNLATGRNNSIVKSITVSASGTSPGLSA
As to the kind of experiment: dilution ELISA, hCEA coated on plate, VHH detected with HRP/anti-E-tag mAb. A general note: An ELISA detects its analyte on a solid surface through an enzyme-linked reagent.
Method: Nunc Maxisorb plates (Nunc) were coated overnight at 4° C. with 1 μg/ml human CEA protein (Abeam, Cambridge, Mass.). The plates were blocked in binding buffer containing 5% w/v non-fat milk in Tris-buffered saline (TBS). […] Plates were incubated at 25° C. for one hour and then washed three times with TBS. Bound VHHs were detected with HRP/anti-E-tag mAb (Bethyl Laboratories, Montgomery, Tex.).
The plates for enzyme-linked immunosorbent assay were coated with purified hCEA protein and then purified VHH were added in wells at various concentrations. (FIG. 2A) Bound VHHs were detected with HRP/anti-E-tag mAb. […] The EC₅₀ values are the VHH concentration that produced 50% maximum signal on the ELISAs.

Assay [2] deals with T2, human carcinoembryonic antigen (hCEA) expressed on cells (human, UniProt P06731 35-685).
T2 sequence (looked up): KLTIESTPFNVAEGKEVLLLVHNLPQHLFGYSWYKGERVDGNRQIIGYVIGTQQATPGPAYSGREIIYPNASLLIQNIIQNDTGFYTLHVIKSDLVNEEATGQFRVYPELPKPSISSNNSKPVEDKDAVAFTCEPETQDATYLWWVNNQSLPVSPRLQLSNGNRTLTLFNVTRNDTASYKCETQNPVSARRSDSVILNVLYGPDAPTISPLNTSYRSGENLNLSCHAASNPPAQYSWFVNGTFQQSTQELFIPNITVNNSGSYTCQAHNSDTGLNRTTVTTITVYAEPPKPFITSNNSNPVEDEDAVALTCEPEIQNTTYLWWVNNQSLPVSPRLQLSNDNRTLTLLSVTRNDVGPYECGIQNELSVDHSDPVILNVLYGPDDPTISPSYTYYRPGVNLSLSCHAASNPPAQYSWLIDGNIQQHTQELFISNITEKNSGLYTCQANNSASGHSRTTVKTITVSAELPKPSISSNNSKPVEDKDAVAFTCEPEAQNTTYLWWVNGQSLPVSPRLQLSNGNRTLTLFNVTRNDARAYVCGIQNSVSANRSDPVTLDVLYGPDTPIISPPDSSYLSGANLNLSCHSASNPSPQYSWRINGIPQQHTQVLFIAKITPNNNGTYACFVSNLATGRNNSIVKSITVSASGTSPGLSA
As to the kind of experiment: cell-based or functional assay.

Assay [3] concerns the target T2, human carcinoembryonic antigen (hCEA) …. In words: cell binding for one hour at 5x10^3 v.p. per cell, hexon qPCR; hCEA up-regulated by irradiation.
The target in assay [4] is T1, purified human carcinoembryonic antigen …. In words: ELISA, hCEA coated on plate, virions detected with anti-adenovirus goat Ab.
Assay [5] concerns the target T2, human carcinoembryonic antigen (hCEA) …. In words: cell binding for one hour, Ad hexon gene copy number by qPCR, MC38CEA against MC38 cells. Background: Real-time PCR tracks product formation cycle by cycle.
Assay [6] has the same target. In words: cell binding for one hour at 1x10^3 vp per cell, Ad hexon gene copy number per 20 ng total DNA by qPCR.

B1: JJB-B5 (VHH)
VHH: QVQLVETGGGLVQPGGSLRPSCTASGSIFSIYAMGWYRQASGKQRELVALITRDEVFNYADSVKGRFTISRDNAKDTVYLQMNSLKPEDTAVYYCWVETVNDHYNSGVEDYWGQGTQVTVSS
notes: Alpaca anti-hCEA VHH, expressed and purified as a thioredoxin fusion protein; not shown: Thioredoxin fusion partner, E-tag and any linkers
The term EC50 denotes the concentration at which the effect is half-maximal. High values mean a need for much substance, low ones an effect from little substance. Turning to B1, the 50% effective concentration (EC50) in assay [1] is around 50 nM.

B2: AdC17Luc (Ad5 vector displaying anti-hCEA fiber-fibritin-VHH chimera, clone C17) (other)
chain: MKRARPSEDTFNPVYPYDTETGPPTVPFLTPPFVSPNGFQESPPGVLSLRLSEPLVTSNGMLALKMGNGLSLDEAGNLTSQNVYSRLNEIDTKQTTVESDISAIKTSIGYPGNNSIITSVNTNTDNIASINLELNQSGGIKQRLTVIETSIGSDDIPSSIKGQIKDNTTSIESLNGIVGENTSSGLRANVSWLNQIVGTDSSGGQPSPPGSLLNRVSTIETSVSGLNNAVQNLQVEIGNNSAGIKGQVVALNTLVNGTNPNGSTVEERGLTNSIKANETNIASVTQEVNTAKGNISSLQGDVQALQEAGYIPEAPRDGQAYVRKDGEWVFLSTFLSPAGGGGSEVQLVESGGGFVQAGESLTLSCTSSTLSCTSSTLTFTPYRMAWYRQAPGKQRDLVADISSGDGRTTNYADFAKGRFTISRDNIKNTVFLRMTNLKPEDTAVYYCNTFVSFVGIARSWGQGTQVTVSSEP
On to B2, for which the “Luc expression in hCEA+ cells (MC38CEA against MC38)” value in assay [2] is around 4 fold.

B3: AdB2Luc (Ad5 vector displaying anti-hCEA fiber-fibritin-VHH chimera, clone B2) (other)
chain: MKRARPSEDTFNPVYPYDTETGPPTVPFLTPPFVSPNGFQESPPGVLSLRLSEPLVTSNGMLALKMGNGLSLDEAGNLTSQNVYSRLNEIDTKQTTVESDISAIKTSIGYPGNNSIITSVNTNTDNIASINLELNQSGGIKQRLTVIETSIGSDDIPSSIKGQIKDNTTSIESLNGIVGENTSSGLRANVSWLNQIVGTDSSGGQPSPPGSLLNRVSTIETSVSGLNNAVQNLQVEIGNNSAGIKGQVVALNTLVNGTNPNGSTVEERGLTNSIKANETNIASVTQEVNTAKGNISSLQGDVQALQEAGYIPEAPRDGQAYVRKDGEWVFLSTFLSPAGGGGSQVQLVETGGGLVQPGGSLRLSCAASESIFSTYAMGWYRQAPGKQRELVAAITTNDIANYADSVKGRFTISRDNAKNTVYLQMNSLNPEDTAVYYCNAIFPPYNYWGQGTQVTVSSEPKTPKPQ
notes: domain: N-terminal Ad5 fiber tail region;domain: entire fibritin protein with the trimerizing foldon domain; The chimeric fiber stood in the assay on whole purified Ad5 virus particles (other capsid proteins present); also called FF-VHH B2; FF-B2
In the case of B3, in assay [3], the “fold increase of Ad hexon gene copy number in irradiated (6 Gy) against mock-treated A549 cells” value came to 5.1 fold, the “fold increase of Ad hexon gene copy number in irradiated (6 Gy) against mock-treated LS174T cells” value was 3.2 fold and the “fold increase of Ad hexon gene copy number in irradiated (6 Gy) against mock-treated PC-3 cells” value was 2.8 fold. Also, the “reporter gene (Luc) expression in hCEA-positive MC38CEA cells in comparison with MC38 cells” value in assay [2] was above 55 fold.

B4: JJB-D1 (VHH)
VHH: QVQLVESGGLVQAGGSLRPSCAASGSIFLQNAMGWYRQVPGKQRELVAAITSVDSTNYADSVKGRFTISRDNAKNTVYLQMNSLKPEDTAVYYCNAPWNSDYHWGKGTLVTVSS
notes: as for B1
B4 registered an EC50 in assay [1] of around 1 nM.

B5: JJB-A3 (VHH)
VHH: QVQLVETGGGLVQPGGSLRLSCAASGRISDINAMGWYRQAPGKQRELVAAITSVGSNYVDSVKGRFTISKDNAKNTVYLQMYSLNPEDTAVYYCNTQCGTWLVCDGRDQWGKGTLVTVSS
notes: Alpaca anti-hCEA VHH, expressed and purified as a thioredoxin fusion protein; the methods name only JJB-A3; not shown: Thioredoxin fusion partner, E-tag and any linkers
In the case of B5, the EC50 in assay [1] was around 0.15 nM.

B6: Ad5Luc (Ad5 vector with wild-type Ad5 fiber) (other)
chain: MKRARPSEDTFNPVYPYDTETGPPTVPFLTPPFVSPNGFQESPPGVLSLRLSEPLVTSNGMLALKMGNGLSLDEAGNLTSQNVTTVSPPLKKTKSNINLEISAPLTVTSEALTVAAAAPLMVAGNTLTMQSQAPLTVHDSKLSIATQGPLTVSEGKLALQTSGPLTTTDSSTLTITASPPLTTATGSLGIDLKEPIYTQNGKLGLKYGAPLHVTDDLNTLTVATGPGVTINNTSLQTKVTGALGFDSQGNMQLNVAGGLRIDSQNRRLILDVSYPFDAQNQLNLRLGQGPLFINSAHNLDINYNKGLYLFTASNNSKKLEVNLSTAKGLMFDATAIAINAGDGLEFGSPNAPNTNPLKTKIGHGLEFDSNKAMVPKLGTGLSFDSTGAITVGNKNNDKLTLWTTPAPSPNCRLNAEKDAKLTLVLTKCGSQILATVSVLAVKGSLAPISGTVQSAHLIIRFDENGVLLNNSFLDPEYWNFRNGDLTEGTAYTNAVGFMPNLSAYPKSHGKTAKSNIVSQVYLNGDKTKPVTLTITLNGTQETGDTTPSAYSMSFSWDWSGHNYINEIFATSSYTFSYIAQE
notes: Wild-type fiber on whole purified Ad5 virus particles; control vector; also called wild-type Ad5Luc; fiber unmodified control Ad5Luc vector
As to B6, in assay [4], the binding result is on record as “no binding”.

B7: Ad.CXCR4E1 (conditionally replicative Ad5 with wild-type Ad5 fiber) (other)
chain: MKRARPSEDTFNPVYPYDTETGPPTVPFLTPPFVSPNGFQESPPGVLSLRLSEPLVTSNGMLALKMGNGLSLDEAGNLTSQNVTTVSPPLKKTKSNINLEISAPLTVTSEALTVAAAAPLMVAGNTLTMQSQAPLTVHDSKLSIATQGPLTVSEGKLALQTSGPLTTTDSSTLTITASPPLTTATGSLGIDLKEPIYTQNGKLGLKYGAPLHVTDDLNTLTVATGPGVTINNTSLQTKVTGALGFDSQGNMQLNVAGGLRIDSQNRRLILDVSYPFDAQNQLNLRLGQGPLFINSAHNLDINYNKGLYLFTASNNSKKLEVNLSTAKGLMFDATAIAINAGDGLEFGSPNAPNTNPLKTKIGHGLEFDSNKAMVPKLGTGLSFDSTGAITVGNKNNDKLTLWTTPAPSPNCRLNAEKDAKLTLVLTKCGSQILATVSVLAVKGSLAPISGTVQSAHLIIRFDENGVLLNNSFLDPEYWNFRNGDLTEGTAYTNAVGFMPNLSAYPKSHGKTAKSNIVSQVYLNGDKTKPVTLTITLNGTQETGDTTPSAYSMSFSWDWSGHNYINEIFATSSYTFSYIAQE
notes: Wild-type fiber on whole purified virus particles; control vector; also called control CRAd
Regarding B7, in assay [5], the binding result is “no binding (tested: 1x10^3 vp per cell)”.

B8: AdVHH122Luc (Ad5 vector displaying anti-EGFR fiber-fibritin-VHH chimera, clone VHH122) (other)
chain: MKRARPSEDTFNPVYPYDTETGPPTVPFLTPPFVSPNGFQESPPGVLSLRLSEPLVTSNGMLALKMGNGLSLDEAGNLTSQNVYSRLNEIDTKQTTVESDISAIKTSIGYPGNNSIITSVNTNTDNIASINLELNQSGGIKQRLTVIETSIGSDDIPSSIKGQIKDNTTSIESLNGIVGENTSSGLRANVSWLNQIVGTDSSGGQPSPPGSLLNRVSTIETSVSGLNNAVQNLQVEIGNNSAGIKGQVVALNTLVNGTNPNGSTVEERGLTNSIKANETNIASVTQEVNTAKGNISSLQGDVQALQEAGYIPEAPRDGQAYVRKDGEWVFLSTFLSPAGGGGSEVQLQESGGGLVQAGDSLRLSCLVSGRSFNSYTMGWFRQAPGKEREFVAAILWSGPTTYYADSVKGRFTISRDNAKNTVYLQMNSLKPEDTAVYYCAAALGVLVLAPGNVYSYWGQGTQVTVSS
notes: domain: N-terminal Ad5 fiber tail region;domain: entire fibritin protein with the trimerizing foldon domain; Isogenic control vector; chimeric fiber on whole purified Ad5 virus particles; also called FF-VHH122
Turning to B8, the binding result in assay [4] was “no binding”.

B9: JJB-B2 (VHH)
VHH: QVQLVETGGGLVQPGGSLRLSCAASESIFSTYAMGWYRQAPGKQRELVAAITTNDIANYADSVKGRFTISRDNAKNTVYLQMNSLNPEDTAVYYCNAIFPPYNYWGQGTQVTVSS
notes: Alpaca anti-hCEA VHH, expressed and purified as a thioredoxin fusion protein; also called clone B2; B2 sdAb; not shown: Thioredoxin fusion partner, E-tag and any linkers
B9: the EC50 in assay [1] was around 0.2 nM.

B10: Ad.CXCR4E1.B2 (conditionally replicative Ad5 with fiber-fibritin chimera expressing anti-hCEA sdAb clone B2) (other)
chain: MKRARPSEDTFNPVYPYDTETGPPTVPFLTPPFVSPNGFQESPPGVLSLRLSEPLVTSNGMLALKMGNGLSLDEAGNLTSQNVYSRLNEIDTKQTTVESDISAIKTSIGYPGNNSIITSVNTNTDNIASINLELNQSGGIKQRLTVIETSIGSDDIPSSIKGQIKDNTTSIESLNGIVGENTSSGLRANVSWLNQIVGTDSSGGQPSPPGSLLNRVSTIETSVSGLNNAVQNLQVEIGNNSAGIKGQVVALNTLVNGTNPNGSTVEERGLTNSIKANETNIASVTQEVNTAKGNISSLQGDVQALQEAGYIPEAPRDGQAYVRKDGEWVFLSTFLSPAGGGSQVQLVETGGGLVQPGGSLRLSCAASESIFSTYAMGWYRQAPGKQRELVAAITTNDIANYADSVKGRFTISRDNAKNTVYLQMNSLNPEDTAVYYCNAIFPPYNYWGQGTQVTVSSEPKTPKPQ
notes: domain: N-terminal Ad5 fiber tail region;domain: trimerizing domain of the fibritin protein; Chimeric fiber on whole purified virus particles; also called FFB2; fiber-fibritin-B2
For B10, in assay [6], the “fold binding to hCEA(+) MC38CEA cells against hCEA(-) MC38 cells” value was around 25 fold.

For the origin of these results see patent publication US20170044269A1 (WASHINGTON UNIVERSITY, published 2017).
